± gives the standard deviation of the averaged measurements.
System: Saccharomyces cerevisiae
Assay: protein stability index of tFT-peptide fusion (C-terminal peptide) (PSI (0-1 scale)); higher = more stable (slower turnover)
Details: temperature: 30 C
Protocol: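 MPS profiling in S. cerevisiae of the yeast C-terminome library: the last 12 aa of each annotated ORF are fused to the C-terminus of a sfGFP-mCherry timer, after a GGGS linker. Cells are FACS-sorted into 8 mCherry/sfGFP bins and deep-sequenced. PSI runs from 0 (unstable) to 1 (stable); wild type and das1Δ backgrounds, two technical replicates each.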

[1] = genetic background: das1 deletion

Sequence | protein stability index [1] | protein stability index (genetic background: wild type)
PLVHEVNGNEGK [DUF1 C-terminal 12 aa] | 0.68 ± 0.011 | 0.716 ± 0.076
MIENEKQNPAKQ [OSH6 C-terminal 12 aa] | 0.693 ± 0.0075 | 0.692 ± 0.028
RVFEFLEKQKRE [MRPL40 C-terminal 12 aa] | 0.722 ± 0.025 | 0.723 ± 0.028
FVKVIDYTSNGW [PBY1 C-terminal 12 aa] | 0.676 ± 0.0086 | 0.685 ± 0.015
ESAKQRRDKQKN [ATG38 C-terminal 12 aa] | 0.7096 ± 0.003 | 0.686 ± 0.02
VLTAGVNSVAIK [RPN11 C-terminal 12 aa] | 0.6646 ± 0.0021 | 0.63 ± 0.0097
QIDKYMDLFTEG [PDH1 C-terminal 12 aa] | 0.7253 ± 0.0065 | 0.7354 ± 0.0063
AGHSNTLQVSTV [CDC19 C-terminal 12 aa] | 0.705 ± 0.0082 | 0.687 ± 0.014
IAEGKSVGIIGA [HXK2 C-terminal 12 aa] | 0.694 ± 0.022 | 0.682 ± 0.018
EFLTNSILTRRK [COQ1 C-terminal 12 aa] | 0.721 ± 0.048 | 0.651 ± 0.065
EEVETVSEHVKV [DPA10 C-terminal 12 aa] | 0.6781 ± 0.00078 | 0.691 ± 0.038
HPWFAEYYHHAS [PHO85 C-terminal 12 aa] | 0.7438 ± 0.0043 | 0.7174 ± 0.0026
NKHDLHLRPGTY [YDR098C-A C-terminal 12 aa] | 0.66848 ± 3.1e-05 | 0.658 ± 0.007
NEASKATGASVH [YOP1 C-terminal 12 aa] | 0.7 ± 0.0098 | 0.737 ± 0.094
PFNRNVSDKLKK [VAC14 C-terminal 12 aa] | 0.733 ± 0.038 | 0.713 ± 0.063
EEMEEFKKLVMG [MIC19 C-terminal 12 aa] | 0.7037 ± 0.0043 | 0.6922 ± 0.00094
FLKNFTNDTFDN [BCH1 C-terminal 12 aa] | 0.7055 ± 0.0035 | 0.7462 ± 0.0044
WEHLHSGFSKNK [ELG1 C-terminal 12 aa] | 0.723 ± 0.012 | 0.716 ± 0.019
YLLGIYRDNKKC [ALG5 C-terminal 12 aa] | 0.727 ± 0.0028 | 0.6693 ± 0.0016
ILDSFEEWSDEE [HDA1 C-terminal 12 aa] | 0.7224 ± 0.0053 | 0.688 ± 0.0073
IRSLPLPFPHMD [MIG1 C-terminal 12 aa] | 0.723 ± 0.0091 | 0.757 ± 0.053

Sequence | protein stability index [1] | protein stability index (genetic background: wild type)
KEKSESLQEEIN [YET3 C-terminal 12 aa] | 0.691 ± 0.0081 | 0.71 ± 0.032
IHKENKEFYLIL [YGL118C C-terminal 12 aa] | 0.703 ± 0.015 | 0.6731 ± 0.00094
AGAAWFFVKLLG [CCC1 C-terminal 12 aa] | 0.67 ± 0.017 | 0.476 ± 0.045
LGDAYVSSDEEF [YEF3 C-terminal 12 aa] | 0.683 ± 0.016 | 0.6769 ± 0.0049
RINQDIKKVKLL [EMP46 C-terminal 12 aa] | 0.6957 ± 0.0047 | 0.145 ± 0.016
GNSGGSNNSSWW [DED1 C-terminal 12 aa] | 0.71484 ± 0.00065 | 0.697 ± 0.02
KDSIKLLDKARL [MSS2 C-terminal 12 aa] | 0.774 ± 0.021 | 0.781 ± 0.085
LPEAPSSQPLQA [TIM17 C-terminal 12 aa] | 0.674 ± 0.013 | 0.696 ± 0.03
SKSGSGGCCIIS [RAS2 C-terminal 12 aa] | 0.736 ± 0.0091 | 0.711 ± 0.011
ESVSYLFTHAPV [PRS2 C-terminal 12 aa] | 0.734 ± 0.0093 | 0.711 ± 0.023
AAVKLSQAKSKL [FOX2 C-terminal 12 aa] | 0.823 ± 0.019 | 0.752 ± 0.014
TKEEIMHGLQAK [RPN5 C-terminal 12 aa] | 0.682 ± 0.024 | 0.728 ± 0.01
GAIMGAAAFALL [TOS6 C-terminal 12 aa] | 0.699 ± 0.013 | 0.729 ± 0.053
LPNVPTVAYVII [YNL319W C-terminal 12 aa] | 0.6334 ± 0.0054 | 0.664 ± 0.024
VKEYYKKSDVGR [ATG9 C-terminal 12 aa] | 0.7026 ± 0.004 | 0.66 ± 0.011
FFRQWWDIIQSK [YMR316C-A C-terminal 12 aa] | 0.7 ± 0.025 | 0.671 ± 0.012
CNNVLYIRELPN [SMX3 C-terminal 12 aa] | 0.689 ± 0.016 | 0.6801 ± 0.0029
PLLLVSHLNFAV [YIR020C-B C-terminal 12 aa] | 0.673 ± 0.0087 | 0.557 ± 0.033
EKPPKEEPESDI [TIM54 C-terminal 12 aa] | 0.711 ± 0.032 | 0.666 ± 0.0042
FRTDEVYAAWRD [KAE1 C-terminal 12 aa] | 0.6891 ± 0.0051 | 0.6814 ± 0.0024
PGWDFNVQIFAI [HRD3 C-terminal 12 aa] | 0.618 ± 0.005 | 0.607 ± 0.0086

Sequence | protein stability index [1] | protein stability index (genetic background: wild type)
VIPHRGKKPVQN [AUS1 C-terminal 12 aa] | 0.68051 ± 0.00019 | 0.681 ± 0.037
NKTICLRNYHWL [YIR017W-A C-terminal 12 aa] | 0.702 ± 0.012 | 0.607 ± 0.0078
KDVIEEALSRFG [UTP7 C-terminal 12 aa] | 0.704 ± 0.0086 | 0.677 ± 0.027
CGLDGKIVIYTI [ARC40 C-terminal 12 aa] | 0.6819 ± 0.0035 | 0.6704 ± 0.0027
RRGDMCDVKENI [PUS7 C-terminal 12 aa] | 0.6678 ± 0.0015 | 0.677 ± 0.031
DMEMEAIAAERD [HMF1 C-terminal 12 aa] | 0.714 ± 0.03 | 0.706 ± 0.031
LEWLSNSLKNST [ARF1 C-terminal 12 aa] | 0.735 ± 0.034 | 0.6802 ± 0.0039
NKLLDKESVSED [YLR046C C-terminal 12 aa] | 0.709 ± 0.027 | 0.711 ± 0.11
ETVGYEAYLENK [ADE2 C-terminal 12 aa] | 0.685 ± 0.014 | 0.661 ± 0.013
KDGDVVYDNGFM [CHS7 C-terminal 12 aa] | 0.7085 ± 0.007 | 0.692 ± 0.01
IDDEDVVSLFAK [RBG2 C-terminal 12 aa] | 0.714 ± 0.035 | 0.732 ± 0.057
LSHKGIKHLNIT [YGR266W C-terminal 12 aa] | 0.702 ± 0.022 | 0.68 ± 0.057
GNEPMEKFIQSL [YMR090W C-terminal 12 aa] | 0.694 ± 0.005 | 0.669 ± 0.0072
QYTQRVGRPNFE [YGR226C C-terminal 12 aa] | 0.7078 ± 0.0012 | 0.674 ± 0.026
REENAHLETYKV [HRK1 C-terminal 12 aa] | 0.7 ± 0.0068 | 0.694 ± 0.016
FRPDEMNIVTKF [PRM15 C-terminal 12 aa] | 0.68 ± 0.022 | 0.753 ± 0.024
TLNFEEARKEYV [YDR509W C-terminal 12 aa] | 0.713 ± 0.016 | 0.728 ± 0.035
DEKVKKMVENLQ [TRS23 C-terminal 12 aa] | 0.7295 ± 0.0065 | 0.738 ± 0.077
DYDEEDPYEDPF [IKI1 C-terminal 12 aa] | 0.731 ± 0.042 | 0.6905 ± 0.0059
DQPFYKSLFSRK [HXT1 C-terminal 12 aa] | 0.7117 ± 0.0036 | 0.685 ± 0.053
EKVRCIKKYQSW [APD1 C-terminal 12 aa] | 0.726 ± 0.0064 | 0.727 ± 0.034

Sequence | protein stability index [1] | protein stability index (genetic background: wild type)
LLLLILNECYPA [BUD30 C-terminal 12 aa] | 0.518 ± 0.0085 | 0.539 ± 0.033
AARADRGANFRD [SPT16 C-terminal 12 aa] | 0.677 ± 0.022 | 0.726 ± 0.012
ETNFWTAALEYE [THI20 C-terminal 12 aa] | 0.723 ± 0.011 | 0.759 ± 0.034
VYDYQYIYKGKQ [SIA1 C-terminal 12 aa] | 0.701 ± 0.016 | 0.698 ± 0.016
MRLLGLTPVERM [YDR341C C-terminal 12 aa] | 0.672 ± 0.00072 | 0.696 ± 0.034
PKIGILHNYLYL [YFT2 C-terminal 12 aa] | 0.698 ± 0.015 | 0.654 ± 0.0094
KHDVLSTLPHNN [SKO1 C-terminal 12 aa] | 0.7043 ± 0.0056 | 0.687 ± 0.011
YDYNSKNSRGFY [DEF1 C-terminal 12 aa] | 0.6999 ± 0.0051 | 0.676 ± 0.033
SGKFNGKKKSRR [FAF1 C-terminal 12 aa] | 0.693 ± 0.029 | 0.666 ± 0.018
EERKDALANNIK [CCS1 C-terminal 12 aa] | 0.6794 ± 0.0017 | 0.688 ± 0.07
FASGKPIKKVKN [DYS1 C-terminal 12 aa] | 0.698 ± 0.0083 | 0.706 ± 0.016
FVAYTTLTFKKT [YMR001C-A C-terminal 12 aa] | 0.6649 ± 0.0001 | 0.67 ± 0.037
RARPRTANRQHM [CCT2 C-terminal 12 aa] | 0.68332 ± 0.0002 | 0.6991 ± 0.005
IIDELQKCHMQE [CDC27 C-terminal 12 aa] | 0.706 ± 0.0081 | 0.6895 ± 0.0016
ENDPWKVVRLAP [PDX3 C-terminal 12 aa] | 0.711 ± 0.019 | 0.715 ± 0.011
IPNIFGKFTVTS [YKL091C C-terminal 12 aa] | 0.697 ± 0.0085 | 0.683 ± 0.013
LEAATNFLLDSA [EDE1 C-terminal 12 aa] | 0.722 ± 0.027 | 0.6796 ± 0.004
SILGMQDMWKAT [PEX11 C-terminal 12 aa] | 0.707 ± 0.017 | 0.713 ± 0.022
QIVNSTPVFTWC [LSB6 C-terminal 12 aa] | 0.653 ± 0.03 | 0.652 ± 0.034

— the supplement of paper PMC10724198
